Measurements: US20160159885A1

Assays:
[1] = biological target: pseudolysin (UniProt P14756); assay: cell-based or functional assay
[2] = biological target: thermolysin (Bacillus thermoproteolyticus) (UniProt P00800); assay: cell-based or functional assay
UniProt P00800, sequence (P00800 233-548 limits assumed): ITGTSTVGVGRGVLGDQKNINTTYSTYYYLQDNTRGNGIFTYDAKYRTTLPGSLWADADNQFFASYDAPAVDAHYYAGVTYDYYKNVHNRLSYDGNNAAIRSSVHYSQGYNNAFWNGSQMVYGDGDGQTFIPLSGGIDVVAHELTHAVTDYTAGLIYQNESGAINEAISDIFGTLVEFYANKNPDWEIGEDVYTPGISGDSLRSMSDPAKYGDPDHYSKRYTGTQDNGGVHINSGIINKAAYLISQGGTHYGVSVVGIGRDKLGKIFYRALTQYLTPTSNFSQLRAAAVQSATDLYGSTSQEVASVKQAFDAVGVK

UniProt P14756, sequence (P14756 198-498 limits assumed): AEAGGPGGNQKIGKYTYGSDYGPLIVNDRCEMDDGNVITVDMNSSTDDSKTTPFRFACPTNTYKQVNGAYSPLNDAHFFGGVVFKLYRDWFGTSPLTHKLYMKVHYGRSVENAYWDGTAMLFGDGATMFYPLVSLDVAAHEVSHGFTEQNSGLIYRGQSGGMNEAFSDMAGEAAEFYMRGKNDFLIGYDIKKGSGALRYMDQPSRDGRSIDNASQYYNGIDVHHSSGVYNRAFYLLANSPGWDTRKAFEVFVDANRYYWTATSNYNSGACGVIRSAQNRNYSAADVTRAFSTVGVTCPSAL

Substance: wtIMPIα (wild-type insect metalloproteinase inhibitor IMPIα) (from UniProt P82176 20-88)
- IC50 wt PLN; column Pos35 InA [1]: 21.8 nM
- IC50 wt PLN; column Pos35 InF [1]: 21.9 nM
- IC50 wt PLN; column Pos35 InL [1]: 21.9 nM
- IC50 wt PLN; column Pos35 InM [1]: 21.9 nM
- IC50 wt PLN; column Pos35 InV [1]: 22.2 nM
- IC50 wt PLN; column Pos35 InW [1]: 22.1 nM
- IC50 wt PLN; column Pos35 InY [1]: 21.9 nM
- IC50 wt PLN; column Pos36 InA [1]: 22 nM
- IC50 wt PLN; column Pos36 InD [1]: 20.9 nM
- IC50 wt PLN; column Pos36 InE [1]: 21.6 nM
- IC50 wt PLN; column Pos36 InF [1]: 22.3 nM
- IC50 wt PLN; column Pos36 InG [1]: 21.6 nM
- IC50 wt PLN; column Pos36 InH [1]: 22 nM
- IC50 wt PLN; column Pos36 InK [1]: 22 nM
- IC50 wt PLN; column Pos36 InM [1]: 22 nM
- IC50 wt PLN; column Pos36 InQ [1]: 21.9 nM
- IC50 wt PLN; column Pos36 InR [1]: 22.3 nM
- IC50 wt PLN; column Pos36 InT [1]: 21.9 nM
- IC50 wt PLN; column Pos36 InV [1]: 22.1 nM
- IC50 wt PLN; column Pos36 InW [1]: 22.1 nM
- IC50 wt PLN; column Pos36 InY [1]: 22.2 nM
- IC50 wt PLN; column Pos37 NnA [1]: 21.9 nM
- IC50 wt PLN; column Pos37 NnC [1]: 20.7 nM
- IC50 wt PLN; column Pos37 NnD [1]: 22.6 nM
- IC50 wt PLN; column Pos37 NnE [1]: 21.9 nM
- IC50 wt PLN; column Pos37 NnG [1]: 21.8 nM
- IC50 wt PLN; column Pos37 NnH [1]: 21.2 nM
- IC50 wt PLN; column Pos37 NnL [1]: 20.8 nM
- IC50 wt PLN; column Pos37 NnM [1]: 30.8 nM
- IC50 wt PLN; column Pos37 NnP [1]: 20.8 nM
- IC50 wt PLN; column Pos37 NnQ [1]: 22.2 nM
- IC50 wt PLN; column Pos37 NnS [1]: 21.5 nM
- IC50 wt PLN; column Pos37 NnV [1]: 21.2 nM
- IC50 wt PLN; column Pos37 NnW [1]: 21.5 nM
- IC50 wt PLN; column Pos37 NnY [1]: 21.5 nM
- IC50 wt PLN; column Pos38 InF [1]: 21.1 nM
- IC50 wt PLN; column Pos38 InG [1]: 22.8 nM
- IC50 wt PLN; column Pos38 InH [1]: 23.1 nM
- IC50 wt PLN; column Pos38 InL [1]: 21.7 nM
- IC50 wt PLN; column Pos38 InM [1]: 21.4 nM
- IC50 wt PLN; column Pos38 InQ [1]: 22.2 nM
- IC50 wt PLN; column Pos38 InV [1]: 21.5 nM
- IC50 wt PLN; column Pos38 InW [1]: 21.1 nM
- IC50 wt PLN; column Pos38 InY [1]: 21.1 nM
- IC50 wt PLN; column Pos39 RnA [1]: 22.1 nM
- IC50 wt PLN; column Pos39 RnF [1]: 20.5 nM
- IC50 wt PLN; column Pos39 RnG [1]: 20.3 nM
- IC50 wt PLN; column Pos39 RnI [1]: 21.2 nM
- IC50 wt PLN; column Pos39 RnK [1]: 22 nM
- IC50 wt PLN; column Pos39 RnL [1]: 20.1 nM
- IC50 wt PLN; column Pos39 RnM [1]: 22.1 nM
- IC50 wt PLN; column Pos39 RnQ [1]: 22.1 nM
- IC50 wt PLN; column Pos39 RnT [1]: 21.9 nM
- IC50 wt PLN; column Pos39 RnV [1]: 21.8 nM
- IC50 wt PLN; column Pos39 RnW [1]: 19.9 nM
- IC50 wt PLN; column Pos39 RnY [1]: 22.5 nM
- IC50 wt PLN; wt (avg), Pos35 block [1]: 22 nM
- IC50 wt PLN; wt (avg), Pos36 block [1]: 21.9 nM
- IC50 wt PLN; wt (avg), Pos37 block [1]: 22.2 nM
- IC50 wt PLN; wt (avg), Pos38 block [1]: 21.8 nM
- IC50 wt PLN; wt (avg), Pos39 block [1]: 21.4 nM
- IC50 wt TLN; column Pos35 InA [2]: 12.6 nM
- IC50 wt TLN; column Pos35 InF [2]: 12.6 nM
- IC50 wt TLN; column Pos35 InL [2]: 12.6 nM
- IC50 wt TLN; column Pos35 InM [2]: 12.6 nM
- IC50 wt TLN; column Pos35 InV [2]: 12.6 nM
- IC50 wt TLN; column Pos35 InW [2]: 12.6 nM
- IC50 wt TLN; column Pos35 InY [2]: 12.6 nM
- IC50 wt TLN; column Pos36 InA [2]: 12.4 nM
- IC50 wt TLN; column Pos36 InD [2]: 12.5 nM
- IC50 wt TLN; column Pos36 InE [2]: 12.5 nM
- IC50 wt TLN; column Pos36 InF [2]: 12.6 nM
- IC50 wt TLN; column Pos36 InG [2]: 12.6 nM
- IC50 wt TLN; column Pos36 InH [2]: 12.4 nM
- IC50 wt TLN; column Pos36 InK [2]: 12.5 nM
- IC50 wt TLN; column Pos36 InM [2]: 12.4 nM
- IC50 wt TLN; column Pos36 InQ [2]: 12.6 nM
- IC50 wt TLN; column Pos36 InR [2]: 12.6 nM
- IC50 wt TLN; column Pos36 InT [2]: 12.4 nM
- IC50 wt TLN; column Pos36 InV [2]: 12.6 nM
- IC50 wt TLN; column Pos36 InW [2]: 12.5 nM
- IC50 wt TLN; column Pos36 InY [2]: 12.6 nM
- IC50 wt TLN; column Pos37 NnA [2]: 12.6 nM
- IC50 wt TLN; column Pos37 NnC [2]: 12.7 nM
- IC50 wt TLN; column Pos37 NnD [2]: 12.1 nM
- IC50 wt TLN; column Pos37 NnE [2]: 12.6 nM
- IC50 wt TLN; column Pos37 NnG [2]: 12.6 nM
- IC50 wt TLN; column Pos37 NnH [2]: 12.8 nM
- IC50 wt TLN; column Pos37 NnL [2]: 11.1 nM
- IC50 wt TLN; column Pos37 NnM [2]: 11.7 nM
- IC50 wt TLN; column Pos37 NnP [2]: 12 nM
- IC50 wt TLN; column Pos37 NnQ [2]: 12.6 nM
- IC50 wt TLN; column Pos37 NnS [2]: 12.5 nM
- IC50 wt TLN; column Pos37 NnV [2]: 12.7 nM
- IC50 wt TLN; column Pos37 NnW [2]: 12.7 nM
- IC50 wt TLN; column Pos37 NnY [2]: 12.5 nM
- IC50 wt TLN; column Pos38 InF [2]: 12.6 nM
- IC50 wt TLN; column Pos38 InG [2]: 12.5 nM
- IC50 wt TLN; column Pos38 InH [2]: 12.5 nM
- IC50 wt TLN; column Pos38 InL [2]: 12.6 nM
- IC50 wt TLN; column Pos38 InM [2]: 12.5 nM
- IC50 wt TLN; column Pos38 InQ [2]: 12.6 nM
- IC50 wt TLN; column Pos38 InV [2]: 12.6 nM
- IC50 wt TLN; column Pos38 InW [2]: 12.4 nM
- IC50 wt TLN; column Pos38 InY [2]: 12.6 nM
- IC50 wt TLN; column Pos39 RnA [2]: 12.5 nM
- IC50 wt TLN; column Pos39 RnF [2]: 12.5 nM
- IC50 wt TLN; column Pos39 RnG [2]: 12.7 nM
- IC50 wt TLN; column Pos39 RnI [2]: 12.5 nM
- IC50 wt TLN; column Pos39 RnK [2]: 12.5 nM
- IC50 wt TLN; column Pos39 RnL [2]: 12.4 nM
- IC50 wt TLN; column Pos39 RnM [2]: 12.6 nM
- IC50 wt TLN; column Pos39 RnQ [2]: 12.6 nM
- IC50 wt TLN; column Pos39 RnV [2]: 12.5 nM
- IC50 wt TLN; column Pos39 RnW [2]: 12.4 nM
- IC50 wt TLN; wt (avg), Pos35 block [2]: 12.6 nM
- IC50 wt TLN; wt (avg), Pos36 block [2]: 12.5 nM
- IC50 wt TLN; wt (avg), Pos37 block [2]: 12.4 nM
- IC50 wt TLN; wt (avg), Pos38 block [2]: 12.5 nM
- IC50 wt TLN; wt (avg), Pos39 block [2]: 12.5 nM
